Substitutions are numbered along the chain they refer to.
B1: 25-G9-G4-C12 (antibody, V domains shown)
VH: EVQLVESGGDLVKPGGSLKLSCAASGFTFSSHGMSWVRQTPDKRLEWVATINSGGYYTYYPDSVKGRFTISRDNAKNTLYLQMSSLKSEDTAMYYCARGQLGNWYFDVWGAGTTVTVSS
VL: DIVMTQSPAIMSASPGEKVTITCSASSSVSYMHWFQQKPGTSPKLWIYSTSNLASGVPARFSGSGSGTSYSLTISRMEAEDAATYYCQQRSSYPLTFGAGTKLELK
notes: mouse monoclonal hybridoma antibody
B2: 44-F10-B6-D4 (antibody, V domains shown)
VH: EVHLVESGGGLVKPGGSLKLSCAASGFTFSSYAMSWVRQTPEKRLEWVATISSGGSYIYYPDSVKGRFTISRDNAKNTLYLQMSSLRSEDTAMYYCARQDWDGGDYYAMDYWGQGTSVTVSS
VL: DIVMTQSPSSLAVSAGEKVTMSCKSSQSVLYSSNQKNFLAWYQQKPGQSPKLLIYWASTRESGVPDRFTGSGSGTDFTLTISSVQAEDLAVYYCHQYLSSLTFGAGTKLELK
notes: as for B1
B3: 36-F4-H1-D9 (antibody, V domains shown)
VH: EVKLLESGGGLVQPGGSLKLSCAASGFDFSRYWMIWVRQAPEKGLEWIGEINPDSSTINYTPSLKDKFIISRDNAKNTLYLQMSKVRSEDTALYYCARPYYRYDVGYFDVWGAGTTVTVSS
VL: DIVMTQAPKVLLVSAGDRVTISCKASQSVSNAVVWYQQKPGQSPKLLIFYASNRYTGVPDRFTGSGYGTDFTFSISTVQAEDLAVYFCQQDYSSPWTFGGGTKLEIK
notes: as for B1
B4: ch42-C8-A12-F3-D11 (antibody, V domains shown)
VH: B1 VH with Q3H, N52S, Y56I, Y60H, T69S, N77K, A92G, M93I, A97T, L101V
VL: B1 VL with M4I, T22N, K38T, S69F
B5: ch7-B4-C1-C9 (antibody, V domains shown)
VH: EVQLQQSGTELVKPGASVKLSCKASGYTFTNYWMHWVKQRPGQGLEWIGEINPSNGRTNYNEKFKTKATLTVDKSSSTAYMQLSSLTSEDSAVYYCARSTYYGYDWYFDVWGAGTTVTVSS
VL: DIVLTQSPSSMYASLGERVTITCKASQDINSYLSWFQQKPGKSPKTLIYRANRLLDGVPSRFSGGGSGQDYSLTISSLEHEDMGIYYCLQCDEFPHTFGGGTKLEIK
B6: ch2-H1-D7-E5-D5 (antibody, V domains shown)
VH: EVHLVESGGGLVQPGGSRKLSCAASGFTFSSFGMHWVRQPPEKGLEWVAYISSGSSSIYYADTVKGRFTISRDNPKNTLFLQMTSLRSEDTAMYYCARGTGTGAMDYWGQGTSVTVSS
VL: DIQMTQTTSSLSASLGDRVTISCRTSQDISNYLNWYQQKPDGTVKLLIYYTSKLHSGVPSRFSGSGSGTDYSLTISNLDQEDIATYFCQQGNTLPWTFGGGTKLEIK
B7: ch25-E7-A10-H6 (antibody, V domains shown)
VH: B6 VH with H3Q, S31T, P40A, S57T, G99S
VL: B6 VL with T25A, N31K, K53R, D79E
B8: ch26-H9-B9-B7 (antibody, V domains shown)
VH: B6 VH with H3Q, L4R, P40A, S57T, G99S, T100D, T102K
VL: B6 VL with Q3V, T7S, T25A, K53R, D79E
B9: ch27-D11-C2-A10 (antibody, V domains shown)
VH: B6 VH with H3Q, S31V, M34V, P40A, S56N, S57T, Y59H, N74I, G99S, T100S
VL: B6 VL with T7S, T20S, T25A, T43A, K53R, I106L
B10: ch10-H9-E3-G3 (antibody, V domains shown)
VH: B6 VH with H3Q, L4R, P40A, S57A, I58M, G99S, T100D, T102K
VL: B6 VL with T25A, I48V, K53R, D79E
B11: ch27-G5-E9-B8 (antibody, V domains shown)
VH: B6 VH with H3Q, P40A, S57T, G99S
VL: B6 VL with R18S, I21F, T25A, Y49S, K53R, D79E, T93A
B12: ch27-F11-E10-G10 (antibody, V domains shown)
VH: B6 VH with H3Q, P40A, S57T, T69S, Y94F, G99S
VL: B6 VL with T25A, K53R, D79E, I106L

biological target: T1, human LILRA1 (human, UniProt O75019 17-489); assay: FACS, 293F-hLILRA1 cells
T1 construct: whole, on cells; also called hLILRA1
T1 sequence (O75019 17-489): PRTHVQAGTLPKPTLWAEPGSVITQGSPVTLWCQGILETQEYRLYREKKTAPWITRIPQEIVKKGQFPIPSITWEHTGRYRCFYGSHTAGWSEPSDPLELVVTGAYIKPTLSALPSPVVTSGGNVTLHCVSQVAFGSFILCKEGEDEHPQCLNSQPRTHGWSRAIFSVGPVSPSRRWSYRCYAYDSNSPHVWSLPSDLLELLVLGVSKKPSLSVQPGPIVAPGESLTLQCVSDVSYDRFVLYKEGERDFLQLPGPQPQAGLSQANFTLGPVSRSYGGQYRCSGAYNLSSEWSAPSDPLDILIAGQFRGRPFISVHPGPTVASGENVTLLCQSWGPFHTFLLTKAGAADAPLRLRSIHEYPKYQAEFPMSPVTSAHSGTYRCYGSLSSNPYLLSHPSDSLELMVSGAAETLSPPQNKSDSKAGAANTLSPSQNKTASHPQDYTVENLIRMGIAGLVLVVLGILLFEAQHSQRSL

Going from B1 to B2, the MFI rises from 24.3 MFI to 25.6 MFI.

B3 gave an MFI of 22.1 MFI.

biological target: T2, human LILRA5 (human, UniProt A6NI73 42-299); assay: FACS, 293F-hLILRA5 cells
T2 construct: whole, on cells; also called hLILRA5
T2 sequence (A6NI73 42-299): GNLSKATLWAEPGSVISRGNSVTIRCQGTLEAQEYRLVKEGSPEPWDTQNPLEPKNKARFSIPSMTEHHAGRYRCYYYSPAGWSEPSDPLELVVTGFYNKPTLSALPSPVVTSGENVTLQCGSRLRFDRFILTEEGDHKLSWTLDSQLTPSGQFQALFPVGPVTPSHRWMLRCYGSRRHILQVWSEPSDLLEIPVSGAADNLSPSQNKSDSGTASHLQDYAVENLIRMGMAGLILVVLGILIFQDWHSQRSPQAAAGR

Compared with B1, B2 is higher in MFI: 25.3 MFI for the first, 26.8 MFI for the second.

Binder B3 has an MFI of 20.3 MFI.

biological target: T3, human LILRA6 protein (human, UniProt Q6PI73 24-447, limits assumed); assay: ELISA, LILRA6 protein
T3 construct: protein for ELISA; construct not described; also called hLILRA6 protein
T3 sequence (Q6PI73 24-447 limits assumed): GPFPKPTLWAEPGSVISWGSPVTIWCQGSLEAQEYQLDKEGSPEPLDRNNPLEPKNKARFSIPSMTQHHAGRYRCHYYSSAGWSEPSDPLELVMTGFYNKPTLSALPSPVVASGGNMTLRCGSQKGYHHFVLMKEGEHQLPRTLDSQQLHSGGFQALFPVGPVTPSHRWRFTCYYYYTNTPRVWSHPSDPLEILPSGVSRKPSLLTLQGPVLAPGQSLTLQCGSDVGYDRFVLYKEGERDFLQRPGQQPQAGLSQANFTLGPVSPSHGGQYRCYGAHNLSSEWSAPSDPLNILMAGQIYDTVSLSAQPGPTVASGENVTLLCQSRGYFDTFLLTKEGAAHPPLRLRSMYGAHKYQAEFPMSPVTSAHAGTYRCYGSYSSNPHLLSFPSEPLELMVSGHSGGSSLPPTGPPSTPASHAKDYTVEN

For B4, the “ELISA(OD450)” value was 0.32 OD450.

B5: no binding.
B6: no binding.
B7: no binding.
B8: no binding.
B9: no binding.
B10: no binding.
B11: no binding.
B12: no binding.

biological target: T4, human LILRB4 (human, UniProt Q8NHJ6 22-448); assay: cell-based or functional assay

First: B4
Second: B5
The “Max cell cytotoxicity (%), ADCC on THP-1 cells” value (“Max cell cytotoxicity (%), ADCC” below) of the first is higher: 14.5% for the first, 13.9% for the second.

First: B6
Second: B7
The “Max cell cytotoxicity (%), ADCC” value of the first is higher: 39.6% for the first, 11.7% for the second.

Going from B8 to B9, the “Max cell cytotoxicity (%), ADCC” value rises from 15.2% to 20.2%.

First: B10
Second: B11
The “Max cell cytotoxicity (%), ADCC” value of the first is higher: 16.6% for the first, 16.4% for the second.

In the case of B12, the “Max cell cytotoxicity (%), ADCC” value is reported as 18.7%.

B6 was tested, and the “EC50 (nM), ADCC on THP-1 cells” value was 7.34 nM.

biological target: T5, human LILRA4 (human, UniProt P59901 24-499); assay: FACS, 293F-hLILRA4 cells
T5 construct: whole, on cells; also called hLILRA4
T5 sequence (P59901 24-499): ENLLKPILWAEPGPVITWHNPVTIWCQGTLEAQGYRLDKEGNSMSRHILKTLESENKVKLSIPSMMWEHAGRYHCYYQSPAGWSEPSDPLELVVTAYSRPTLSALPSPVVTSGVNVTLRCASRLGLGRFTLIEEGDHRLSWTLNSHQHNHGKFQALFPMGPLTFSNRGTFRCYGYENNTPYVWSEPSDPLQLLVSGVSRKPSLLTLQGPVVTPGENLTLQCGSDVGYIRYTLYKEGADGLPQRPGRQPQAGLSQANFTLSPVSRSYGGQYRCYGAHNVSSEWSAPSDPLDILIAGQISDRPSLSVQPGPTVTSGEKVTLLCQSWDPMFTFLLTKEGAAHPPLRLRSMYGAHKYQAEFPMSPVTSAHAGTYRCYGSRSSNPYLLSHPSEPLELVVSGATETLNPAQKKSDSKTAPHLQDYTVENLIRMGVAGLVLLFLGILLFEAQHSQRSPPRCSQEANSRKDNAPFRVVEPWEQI

Compared with B1, B2 is higher in MFI: 22.7 MFI for the first, 24.4 MFI for the second.

In the case of B3, the MFI is reported as 20.7 MFI.

biological target: T6, human LILRA2 (human, UniProt Q8N149 24-483); assay: FACS, 293F-hLILRA2 cells
T6 construct: whole, on cells; also called hLILRA2
T6 sequence (Q8N149 24-483): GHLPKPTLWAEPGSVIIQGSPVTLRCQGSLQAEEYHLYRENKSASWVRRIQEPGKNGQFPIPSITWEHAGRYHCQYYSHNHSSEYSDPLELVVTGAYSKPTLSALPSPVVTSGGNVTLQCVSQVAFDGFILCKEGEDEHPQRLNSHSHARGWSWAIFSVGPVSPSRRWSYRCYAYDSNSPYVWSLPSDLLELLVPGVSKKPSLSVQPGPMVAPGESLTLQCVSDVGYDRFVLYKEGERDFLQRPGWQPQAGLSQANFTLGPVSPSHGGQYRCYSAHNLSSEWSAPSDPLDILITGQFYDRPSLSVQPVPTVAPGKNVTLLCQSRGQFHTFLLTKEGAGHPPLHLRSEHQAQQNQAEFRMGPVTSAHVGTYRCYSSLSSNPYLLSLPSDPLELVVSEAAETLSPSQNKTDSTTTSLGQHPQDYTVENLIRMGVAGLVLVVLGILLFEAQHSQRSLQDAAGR

Compared with B1, B2 is higher in MFI: 21.7 MFI for the first, 24.8 MFI for the second.

Work on B3 yielded an MFI of 16.5 MFI.

biological target: T4, human LILRB4; assay: cell-based or functional assay; remark: another data set of the same source

B4 and B5 are within 1.5-fold of each other in “FcγR stimulation (TNF-α, pg/mL)” value: 308 pg/mL for the first, 415 pg/mL for the second.

B6 and B7 are within 1.5-fold of each other in “FcγR stimulation (TNF-α, pg/mL)” value: 325 pg/mL for the first, 390 pg/mL for the second.

B8 and B9 are within 1.5-fold of each other in “FcγR stimulation (TNF-α, pg/mL)” value: 547 pg/mL for the first, 666 pg/mL for the second.

B10 and B11 are within 1.5-fold of each other in “FcγR stimulation (TNF-α, pg/mL)” value: 389 pg/mL for the first, 394 pg/mL for the second.

For B12, the “FcγR stimulation (TNF-α, pg/mL)” value was 393 pg/mL.

First: B4
Second: B5
The “Fold change (Compared to isotype)” value of the first is lower: 9.73 fold for the first, 13.1 fold for the second.

First: B6
Second: B7
The “Fold change (Compared to isotype)” value of the first is lower: 10.3 fold for the first, 12.3 fold for the second.

First: B8
Second: B9
The “Fold change (Compared to isotype)” value of the first is lower: 17.3 fold for the first, 21.1 fold for the second.

Going from B10 to B11, the “Fold change (Compared to isotype)” value rises from 12.3 fold to 12.5 fold.

For B12, the “Fold change (Compared to isotype)” value was 12.4 fold.

biological target: T7, human LILRA3 (human, UniProt Q8N6C8 24-439); assay: FACS, 293F-hLILRA3 cells
T7 construct: whole, on cells; also called hLILRA3
T7 sequence (Q8N6C8 24-439): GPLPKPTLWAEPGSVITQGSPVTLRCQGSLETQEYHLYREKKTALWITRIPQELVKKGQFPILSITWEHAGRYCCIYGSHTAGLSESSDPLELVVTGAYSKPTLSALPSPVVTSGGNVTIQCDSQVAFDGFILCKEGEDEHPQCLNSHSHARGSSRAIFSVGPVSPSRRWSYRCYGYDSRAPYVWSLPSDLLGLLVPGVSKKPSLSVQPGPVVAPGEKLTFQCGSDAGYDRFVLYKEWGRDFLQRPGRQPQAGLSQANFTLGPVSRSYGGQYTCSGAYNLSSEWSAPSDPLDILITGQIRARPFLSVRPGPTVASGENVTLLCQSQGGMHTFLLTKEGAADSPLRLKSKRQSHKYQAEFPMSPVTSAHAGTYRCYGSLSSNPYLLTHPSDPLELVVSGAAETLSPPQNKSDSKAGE

Compared with B1, B2 is higher in MFI: 18.6 MFI for the first, 22.5 MFI for the second.

B3 was tested, and the MFI was 18.6 MFI.

biological target: T4, human LILRB4; assay: FACS, 293F-hLILRB4 cells
Procedure: (§1) The protocol for FACS analysis is described as follows: [0438] (a) Cells were harvested by centrifugation at 300 g for 3 mins. […] (b) The cells were washed for 2 times with FACS buffer by centrifuging at 300 g for 3 mins and the supernatant was discarded. [0440] (c) Cell were resuspended and seeded into assay plate (2×10⁵ cells/well) in 50 μl FACS buffer. […] Cells were incubated with antibodies at 4° C. for 1 hour. […] (d) Step (b) was repeated and the cells were resuspended with 100 μl diluted 2nd antibody, incubated at 4° C. for 1 hour in the dark. [0442] (e) Step (b) was repeated and the cells were resuspended with 100 μl FACS buffer. The cells were kept in dark for FACS analysis.

Compared with B4, B5 is 2.5-fold lower in EC50: 1.36 nM for the first, 0.54 nM for the second.

B6 and B7 are within 1.5-fold of each other in EC50: 1.6 nM for the first, 1.4 nM for the second.

B8 and B9 are within 1.5-fold of each other in EC50: 1.66 nM for the first, 1.43 nM for the second.

B10 and B11 are within 1.5-fold of each other in EC50: 1.41 nM for the first, 1.75 nM for the second.

B12 gave an EC50 of 1.52 nM.

First: B4
Second: B5
The “Max MFI” value of the first is higher: 48400 MFI for the first, 47300 MFI for the second.

Going from B6 to B7, the “Max MFI” value rises from 38300 MFI to 45000 MFI.

Going from B8 to B9, the “Max MFI” value rises from 46000 MFI to 46800 MFI.

Going from B10 to B11, the “Max MFI” value falls from 45200 MFI to 44300 MFI.

For B12, the “Max MFI” value was 46200 MFI.

biological target: T8, human LILRB5 (human, UniProt O75023 24-590); assay: FACS, 293F-hLILRB5 cells
T8 construct: whole, on cells; also called hLILRB5
T8 sequence (O75023 24-590): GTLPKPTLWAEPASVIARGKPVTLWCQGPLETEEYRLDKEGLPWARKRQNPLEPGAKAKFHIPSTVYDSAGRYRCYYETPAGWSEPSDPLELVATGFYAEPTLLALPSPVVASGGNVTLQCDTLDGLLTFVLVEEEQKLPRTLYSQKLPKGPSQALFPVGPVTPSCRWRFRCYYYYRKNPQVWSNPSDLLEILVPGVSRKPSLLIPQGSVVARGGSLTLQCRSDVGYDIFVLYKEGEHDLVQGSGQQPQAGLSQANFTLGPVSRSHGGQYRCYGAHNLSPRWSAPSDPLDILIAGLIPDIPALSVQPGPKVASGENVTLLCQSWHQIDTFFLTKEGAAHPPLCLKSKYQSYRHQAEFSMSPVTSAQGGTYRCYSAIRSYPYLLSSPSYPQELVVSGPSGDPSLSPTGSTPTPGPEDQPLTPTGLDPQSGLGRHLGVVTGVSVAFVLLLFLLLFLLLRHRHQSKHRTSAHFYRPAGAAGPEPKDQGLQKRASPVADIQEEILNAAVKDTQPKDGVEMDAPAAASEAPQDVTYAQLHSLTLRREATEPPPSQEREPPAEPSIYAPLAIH

Going from B1 to B2, the MFI rises from 22.9 MFI to 26.6 MFI.

With B3 the MFI was 17 MFI.

biological target: T4, human LILRB4; assay: FACS, 293F-hLILRB4 cells; remark: another data set of the same source
Procedure: The subcloning plates were screened by protein or cell-based ELISA, and the subclones with good binding ability were expanded to 24-wells for confirmation tests. The specificity and cross-reactivity of these subclones were confirmed with FACS analysis. […] Fluorescent dye-conjugated secondary antibody was used to detect the binding of the primary antibody with the cells. Median fluorescence intensity (MFI) was measured by FACS analysis. […]

Compared with B1, B2 is lower in MFI: 383 MFI for the first, 84.9 MFI for the second.

With B3 the MFI was 898 MFI.

biological target: T9, human LILRB3 (human, UniProt O75022 24-631); assay: FACS, 293F-hLILRB3 cells
T9 construct: whole, on cells; also called hLILRB3
T9 sequence (O75022 24-631): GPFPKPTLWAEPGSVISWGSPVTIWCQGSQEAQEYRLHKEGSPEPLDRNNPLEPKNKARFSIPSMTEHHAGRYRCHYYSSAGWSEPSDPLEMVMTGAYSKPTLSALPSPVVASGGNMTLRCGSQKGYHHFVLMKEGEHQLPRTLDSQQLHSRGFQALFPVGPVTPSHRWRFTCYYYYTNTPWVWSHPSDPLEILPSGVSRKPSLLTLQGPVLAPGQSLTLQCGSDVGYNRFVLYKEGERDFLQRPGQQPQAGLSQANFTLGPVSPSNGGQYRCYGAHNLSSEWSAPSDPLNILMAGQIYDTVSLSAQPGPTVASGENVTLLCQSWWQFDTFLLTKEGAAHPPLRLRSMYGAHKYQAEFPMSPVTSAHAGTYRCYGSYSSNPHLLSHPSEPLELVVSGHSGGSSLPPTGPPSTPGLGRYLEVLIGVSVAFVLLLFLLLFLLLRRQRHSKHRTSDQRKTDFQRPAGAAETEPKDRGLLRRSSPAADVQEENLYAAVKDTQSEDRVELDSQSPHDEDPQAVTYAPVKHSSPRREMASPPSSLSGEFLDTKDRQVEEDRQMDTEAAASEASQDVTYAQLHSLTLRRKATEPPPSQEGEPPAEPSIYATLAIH

Compared with B1, B2 is higher in MFI: 25.2 MFI for the first, 31.6 MFI for the second.

B3 gave an MFI of 23.5 MFI.

biological target: T10, human LILRB1 (human, UniProt Q8NHL6 24-650); assay: FACS, 293F-hLILRB1 cells
T10 construct: whole, on cells; also called hLILRB1
T10 sequence (Q8NHL6 24-650): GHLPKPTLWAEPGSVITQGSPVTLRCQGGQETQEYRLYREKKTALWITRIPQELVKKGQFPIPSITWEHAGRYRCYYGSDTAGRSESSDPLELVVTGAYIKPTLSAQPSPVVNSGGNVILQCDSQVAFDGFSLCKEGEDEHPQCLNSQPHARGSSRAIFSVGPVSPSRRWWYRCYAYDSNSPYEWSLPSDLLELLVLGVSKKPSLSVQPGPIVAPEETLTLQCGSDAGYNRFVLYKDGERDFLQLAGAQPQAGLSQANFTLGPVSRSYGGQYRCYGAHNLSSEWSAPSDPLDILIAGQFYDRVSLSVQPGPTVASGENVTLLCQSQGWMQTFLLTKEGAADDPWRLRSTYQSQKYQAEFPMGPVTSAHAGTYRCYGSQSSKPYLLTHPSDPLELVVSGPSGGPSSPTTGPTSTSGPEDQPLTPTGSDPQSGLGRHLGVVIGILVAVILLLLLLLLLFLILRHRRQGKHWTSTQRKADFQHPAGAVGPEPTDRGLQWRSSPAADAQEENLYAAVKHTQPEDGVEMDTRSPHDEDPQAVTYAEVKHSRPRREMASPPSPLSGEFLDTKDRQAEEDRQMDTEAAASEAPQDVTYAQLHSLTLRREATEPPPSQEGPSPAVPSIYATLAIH

Compared with B1, B2 is higher in MFI: 26 MFI for the first, 38.4 MFI for the second.

With B3 the MFI was 25.7 MFI.

biological target: T11, human LILRB2 (human, UniProt Q8N423 22-597); assay: FACS, 293F-hLILRB2 cells
T11 construct: whole, on cells; also called hLILRB2
T11 sequence (Q8N423 22-597): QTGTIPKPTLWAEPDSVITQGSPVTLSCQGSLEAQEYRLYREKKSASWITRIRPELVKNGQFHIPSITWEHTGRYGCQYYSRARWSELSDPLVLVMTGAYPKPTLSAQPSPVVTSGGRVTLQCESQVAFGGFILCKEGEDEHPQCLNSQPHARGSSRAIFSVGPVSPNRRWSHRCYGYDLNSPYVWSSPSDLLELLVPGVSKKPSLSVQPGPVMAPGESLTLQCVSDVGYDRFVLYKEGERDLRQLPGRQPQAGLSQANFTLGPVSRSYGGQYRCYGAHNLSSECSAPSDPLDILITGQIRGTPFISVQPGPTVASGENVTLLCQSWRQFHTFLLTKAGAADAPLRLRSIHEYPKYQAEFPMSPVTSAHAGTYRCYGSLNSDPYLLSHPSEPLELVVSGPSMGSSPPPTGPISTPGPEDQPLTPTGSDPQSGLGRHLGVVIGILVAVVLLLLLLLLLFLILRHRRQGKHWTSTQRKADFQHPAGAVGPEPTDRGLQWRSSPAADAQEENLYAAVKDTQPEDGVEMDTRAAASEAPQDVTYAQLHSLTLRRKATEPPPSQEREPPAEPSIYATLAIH

Compared with B1, B2 is higher in MFI: 32.8 MFI for the first, 38.2 MFI for the second.

With B3 the MFI was 26.5 MFI.

biological target: T4, human LILRB4; assay: cell-based or functional assay; remark: another data set of the same source

Going from B4 to B5, the “ADCP (%) at 133.3 nM, macrophages and MV-4-11 cells” value (“ADCP (%) at 133.3 nM” for short) falls from 20.4% to 11.8%.

Going from B6 to B7, the “ADCP (%) at 133.3 nM” value falls from 27.9% to 11%.

First: B8
Second: B9
The “ADCP (%) at 133.3 nM” value of the first is higher: 16.1% for the first, 12.1% for the second.

Compared with B10, B11 is higher in “ADCP (%) at 133.3 nM” value: 13.7% for the first, 14.8% for the second.

In the case of B12, the “ADCP (%) at 133.3 nM” value is reported as 16.3%.

biological target: T9, human LILRB3; assay: FACS, 293F-hLILRB3 cells; remark: another data set of the same source
Procedure: as §1

For B4, the EC50 was 12.8 nM.

B5: no binding (tested: up to 66.67 nM).
B6: no binding (tested: up to 66.67 nM).
B7: no binding (tested: up to 66.67 nM).
B8: no binding (tested: up to 66.67 nM).
B9: no binding (tested: up to 66.67 nM).
B10: no binding (tested: up to 66.67 nM).
B11: no binding (tested: up to 66.67 nM).
B12: no binding (tested: up to 66.67 nM).
